Experimental data as given in patent publication CN113754775A (SUNSHINE GUOJIAN PHARMACEUTICAL SHANGHAI CO LTD, dated 2021).

Target: T1, PDL1-ECD-his (human, UniProt Q9NZQ7 19-238)
T1 construct: extracellular domain; Made in HEK-293F
Test: ELISA, PDL1-ECD-his coated, anti-human IgG Fc-HRP

T1 sequence (Q9NZQ7 other isoform, or with tags, fused parts or gaps): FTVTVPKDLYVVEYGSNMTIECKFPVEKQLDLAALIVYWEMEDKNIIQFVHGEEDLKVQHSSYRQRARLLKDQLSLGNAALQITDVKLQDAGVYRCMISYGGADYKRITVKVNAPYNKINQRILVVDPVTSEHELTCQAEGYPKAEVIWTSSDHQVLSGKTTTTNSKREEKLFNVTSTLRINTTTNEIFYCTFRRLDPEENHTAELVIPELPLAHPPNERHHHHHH

B1: 抗人PD-L1抗体M8 (antibody, V domains shown)
VH: QVQLQQSGGGLVKPSQSLSLTCTVSGFSLTSYGVHWVRQPPGKGLEWIGLIWSGGGTDYNPSLKSRLTISRDTSKNQVSFKISSLTAADTAVYYCARQLGLRAMDYWGQGTSVTVSS
VL: EIVLTQSPDFLSVTPKEKVTITCRASQSIGTTIHWYQQKPDQSPKLLIKYASQSFSGVPSRFSGSGSGTDFTLTINSVEAEDAATYYCQQSNSWPLTFGAGTKLEIK
notes: Whole monoclonal antibody with two heavy and two light chains, made in HEK293F; also called anti-human PD-L1 antibody M8
B1: binds.
